Experimental data taken from patent US20250339569A1 (3B PHARMACEUTICALS, published 2025).
Starred links: 1 amine or outer side, 2 acyl side, 3 side chain; linkers in the order of their positions; H or OH if unused. Positions of bridges follow the written chain, without caps; N, C: chain ends. Non-standard residues stand in square brackets, D forms with d. Primed or numbered codes have the meaning given here. No end group written: not given here. *: point of attachment. Af3(Aytr) = 3-amino-L-phenylalanine, ring amine acylated with triazol-1-yl acetic acid bearing a 4-hydroxamic acid group, O=C(Cn1cc(C(=O)NO)nn1)Nc1cccc(C[C@H](N[*:1])C(=O)[*:2])c1; Af3(CMPy) = 3-amino-L-phenylalanine acylated on the ring amine with 5-cyano-1-methyl-1H-pyrazole-4-carboxylic acid, Cn1ncc(C(=O)Nc2cccc(C[C@H](N[*:1])C(=O)[*:2])c2)c1C#N; Af3(Hspy) = 3-amino-L-phenylalanine, ring amine acylated with 4-sulfamoyl-1H-pyrrole-2-carboxylic acid, NS(=O)(=O)c1c[nH]c(C(=O)Nc2cccc(C[C@H](N[*:1])C(=O)[*:2])c2)c1; Aph(Hspy) = 4-amino-L-phenylalanine, ring amine acylated with 4-sulfamoyl-1H-pyrrole-2-carboxylic acid, NS(=O)(=O)c1c[nH]c(C(=O)Nc2ccc(C[C@H](N[*:1])C(=O)[*:2])cc2)c1; Aph(Hsfu) = 4-amino-L-phenylalanine, ring amine acylated with 4-sulfamoylfuran-2-carboxylic acid, NS(=O)(=O)c1coc(C(=O)Nc2ccc(C[C@H](N[*:1])C(=O)[*:2])cc2)c1; Aph(HO-Succinyl) = 4-aminophenylalanine acylated on the ring amine with succinic acid (free carboxyl), O=C(CCC(=O)[*:3])Nc1ccc(C[C@H](N[*:1])C(=O)[*:2])cc1; Af3(PrHydr) = 3-amino-L-phenylalanine, ring amine acylated by 4-(hydroxycarbamoyl)butanoic acid, O=C(CCCC(=O)Nc1cccc(C[C@H](N[*:1])C(=O)[*:2])c1)NO; Aph(SaPr)″ = 4-amino-L-phenylalanine, ring amine acylated with 3-sulfamoylpropanoic acid, NS(=O)(=O)CCC(=O)Nc1ccc(C[C@H](N[*:1])C(=O)[*:2])cc1; Aph(SaPr) = 4-amino-L-phenylalanine, ring amine acylated by 3-sulfamoylpropanoic acid, NS(=O)(=O)CCC(=O)Nc1ccc(C[C@H](N[*:1])C(=O)[*:2])cc1; Af3(DkpAc) = 3-amino-L-phenylalanine acylated on the ring amine with 2-(3,6-dioxopiperazin-2-yl)acetic acid; Af3(Cshx) = 3-amino-L-phenylalanine, ring amine acylated with 4-sulfamoylcyclohexane-1-carboxylic acid; Phe(3-NHCO(CH2)3SO2NH2) = N[C@@H](Cc1cccc(NC(=O)CCCS(N)(=O)=O)c1)C(=O)O; APAc″ = 2-(4-(amino)piperidin-1-yl)acetic acid, NC1CCN(CC(=O)*)CC1; DOTA = O=C(O)CN1CCN(CC(=O)O)CCN(CC(=O)*)CCN(CC(=O)O)CC1; PPAc = 4-carboxymethyl piperazine linker; mXylylene = c1cc(C[*:1])cc(C[*:2])c1; Af3(Aype) = not defined here; Af3(Hytr) = not defined here; Aph(Aybu) = not defined here; Dap = NC[C@H](N)C(=O)O; AEEA = NCCOCCOCC(=O)O

Tests used:
[1] = target: human carbonic anhydrase 9 (CAIX) (human, UniProt Q16790 38-459); experiment: FACS competition on HT-29 cells, competitor tracer 3BP-4149; category A = pIC50 >8.0
Protocol: (§1) CAIX-expressing human HT-29 colorectal cancer cells (DSMZ, RRID: CVCL_0320) were cultured in McCoys's 5A modified medium (Biochrom, #F1015) including 10% fetal calf serum (FCS), 2 mM L-glutamine, 100 U/ml penicillin and 100 μg/mL streptomycin. Cells were detached with Accutase (Biolegend, #423201) and washed in FACS buffer (PBS including 1% FCS). Cells were diluted in FACS buffer to a final concentration of 500.000 cells per ml. 200 μL of the cell suspension were transferred to a u-shaped non-binding 96-well plate (Greiner) and cells were washed in ice-cold FACS buffer.
(§2) When biotinylated compounds were used an additional incubation step with 1 μg/mL APC-Streptavidin (Miltenyi; #130-106-791) in 50 μL FACS buffer for 30 minutes on ice was performed.
(§3) Cells were washed twice with ice-cold FACS buffer and analyzed in an Attune NxT flow cytometer (Thermo Fisher). Median fluorescence intensities (MFI) of the APC/Cy5-channel were calculated by Attune NxT software.

[2] = target: T1, Fc-fusion protein of human carbonic anhydrase IX (human, UniProt Q16790 38-414); experiment: SPR, captured hCAIX-Fc; pKD category B: 7.1-8.0
Protocol: (§4) Stock solutions of test compounds were prepared by dissolving each compound in DMSO. DMSO stock solution were diluted 1:1000 in Running Buffer without DMSO. […] SPR binding analyses were performed in Single Cycle Kinetic (SCK) mode at 25° C.
(§5) For each test compound, SPR raw data in the form of resonance units (RU) were plotted as sensorgrams using the Biacore™ T200 control software. The signal from the blank sensorgram was subtracted from that of the test compound sensorgram (blank corrected). The blank corrected sensorgram was corrected for baseline drift by subtracting the sensorgram of a SCK run without the test compound (running buffer only). […] Raw data and fit results were imported as text files in IDBS. The pKD value (negative decadic logarithm of dissociation constant) was calculated in the IDBS excel template.

[3] = target: T1, Fc-fusion protein of human carbonic …; experiment: SPR, captured hCAIX-Fc; t1/2 category C: 2.1-5.0 min
[4] = target: T2, human carbonic anhydrase IX (CAIX) (human, UniProt Q16790 38-459); experiment: FACS competition, HT-29 cells, tracer 3BP-2776; pIC50 category B: 7.1-8.0
Protocol: as §1, §2, §3

[5] = target: T1, Fc-fusion protein of human carbonic …; experiment: SPR, captured hCAIX-Fc; t1/2 category D: <=2.0 min
Protocol: as §4, §5

[6] = target: T3, human carbonic anhydrase IV (CAIV), biotinylated (human, UniProt P22748 19-283, limits assumed, biotinylated); experiment: SPR, biotinylated CAIV captured (Biotin CAPture)
T3 construct: Bought (SinoBiological, Cat # printed 10472-1H081H); also called hCAIV-bio
Text: as §5

[7] = target: T4, human carbonic anhydrase XII (CAXII), biotinylated (human, UniProt O43570 25-301, biotinylated); experiment: SPR, biotinylated CAXII captured (Biotin CAPture)
T4 construct: Bought (SinoBiological Cat #10617-H08H); also called hCAXII-bio
Text: as §5

[8] = target: T5, human carbonic anhydrase XIV (CAXIV), biotinylated (human, UniProt Q9ULX7 16-290, biotinylated); experiment: SPR, biotinylated CAXIV captured (Biotin CAPture)
T5 construct: Bought (SinoBiological Cat #10458-H08H); also called hCAXIV-bio
Text: as §5

[9] = target: T1, Fc-fusion protein of human carbonic …; experiment: SPR, captured hCAIX-Fc; t1/2 category A: >15.0 min
[10] = target: T2, human carbonic anhydrase IX (CAIX); experiment: FACS competition, HT-29 cells, tracer 3BP-2776; pIC50 category C: 6.1-7.0
Protocol: as §1, §2, §3

[11] = target: T1, Fc-fusion protein of human carbonic …; experiment: SPR, captured hCAIX-Fc; pKD category A: >8.0

T3 sequence (P22748 19-283 limits assumed): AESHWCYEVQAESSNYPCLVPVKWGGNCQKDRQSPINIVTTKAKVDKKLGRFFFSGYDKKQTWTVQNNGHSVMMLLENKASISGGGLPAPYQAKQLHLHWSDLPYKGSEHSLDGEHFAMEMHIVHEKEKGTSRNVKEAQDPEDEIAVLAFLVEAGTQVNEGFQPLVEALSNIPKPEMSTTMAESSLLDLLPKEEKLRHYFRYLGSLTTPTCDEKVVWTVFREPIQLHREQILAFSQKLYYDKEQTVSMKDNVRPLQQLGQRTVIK
T5 sequence (Q9ULX7 16-290 limits assumed): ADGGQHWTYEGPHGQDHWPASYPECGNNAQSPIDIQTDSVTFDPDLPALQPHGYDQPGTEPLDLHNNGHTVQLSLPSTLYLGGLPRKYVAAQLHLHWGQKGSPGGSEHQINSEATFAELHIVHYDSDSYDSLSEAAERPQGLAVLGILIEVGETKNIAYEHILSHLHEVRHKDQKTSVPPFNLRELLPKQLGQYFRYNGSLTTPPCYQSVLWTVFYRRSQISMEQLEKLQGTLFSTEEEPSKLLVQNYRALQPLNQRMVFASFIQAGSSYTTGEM
T4 sequence (O43570 25-301 limits assumed): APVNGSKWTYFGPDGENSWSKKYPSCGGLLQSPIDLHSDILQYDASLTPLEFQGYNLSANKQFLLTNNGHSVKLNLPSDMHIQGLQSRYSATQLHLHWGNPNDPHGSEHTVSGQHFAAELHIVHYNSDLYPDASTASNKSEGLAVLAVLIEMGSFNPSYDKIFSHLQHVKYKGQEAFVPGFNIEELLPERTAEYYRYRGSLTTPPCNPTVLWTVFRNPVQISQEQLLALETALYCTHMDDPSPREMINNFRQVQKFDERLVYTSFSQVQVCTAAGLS

B1: 3BP-4264 (peptide)
peptide: {DOTA}-VDCE[dP]DWLTW[Dap]C-NH2
modifications: lactam 2-11; linker 3-12 via mXylylene
SMILES: CC(C)C[C@@H]1NC(=O)[C@H](Cc2c[nH]c3ccccc23)NC(=O)[C@H](CC(=O)O)NC(=O)[C@H]2CCCN2C(=O)[C@H](CCC(=O)O)NC(=O)[C@@H]2CSCc3cccc(c3)CSC[C@@H](C(N)=O)NC(=O)[C@H](CNC(=O)C[C@H](NC(=O)[C@@H](NC(=O)CN3CCN(CC(=O)O)CCN(CC(=O)O)CCN(CC(=O)O)CC3)C(C)C)C(=O)N2)NC(=O)[C@H](Cc2c[nH]c3ccccc23)NC(=O)[C@H]([C@@H](C)O)NC1=O
[1]
  pIC50: > 8 pic50

## {DOTA-PPAc}-QCE[dP]D[Af3(Hspy)]LTWSC-NH2 (linker 2-11 via mXylylene) [3BP-4789]
[2]
  pKD: 7.1 to 8 pkd
[3]
  t1/2 (half-life of the complex, SPR): 2.1 to 5 min
[4]
  pIC50: 7.1 to 8 pic50

B2: 3BP-4337 (peptide)
peptide: VDCE[dP]DWLTW[Dap]C-NH2
modifications: lactam 2-11; linker 3-12 via mXylylene; not fully specified (N-terminus); also: indium complexed by DOTA
[1]
  pIC50: > 8 pic50

## {DOTA-APAc″}-VYCE[dP]D[Af3(DkpAc)]LTWSC-NH2 (linker 3-12 via mXylylene) [3BP-4288]
[2]
  pKD: 7.1 to 8 pkd
[5]
  t1/2 (half-life of the complex, SPR): ≤ 2 min

## {DOTA}-QCE[dP]D[Aph(SaPr)″]LTWSC-NH2 (linker 2-11 via mXylylene; also: Lu complexed in DOTA, also called natLu-3BP-4501) [3BP-4581]
[6]
  pKD: < 6 pkd
[7]
  pKD: < 6 pkd
[8]
  pKD: < 6 pkd
[9]
  t1/2 (half-life of the complex, SPR): > 15 min

B3: 3BP-4555 (peptide)
peptide: QCE[dP]D[Phe(3-NHCO(CH2)3SO2NH2)]LTWSC-NH2
modifications: linker 2-11 via mXylylene; not fully specified (N-terminus); also: Lu complexed in DOTA
notes: also called natLu-DPI-4452
[6]
  pKD: < 6 pkd
[7]
  pKD: < 6 pkd
[8]
  pKD: < 6 pkd
[9]
  t1/2 (half-life of the complex, SPR): > 15 min

## {DOTA-PPAc}-QCE[dP]D[Aph(Hspy)]LTWSC-NH2 (linker 2-11 via mXylylene) [3BP-4814]
[10]
  pIC50: 6.1 to 7 pic50

## {DOTA-PPAc}-QCE[dP]D[Af3(Hytr)]LTWSC-NH2 (linker 2-11 via mXylylene; reading uncertain) [3BP-4882]
[10]
  pIC50: 6.1 to 7 pic50

## {DOTA-PPAc}-QCE[dP]D[Af3(Aype)]LTWSC-NH2 (linker 2-11 via mXylylene; reading uncertain) [3BP-4886]
[10]
  pIC50: 6.1 to 7 pic50

B4: 3BP-3869 (peptide)
peptide: {DOTA-AEEA}-YCE[dP]DWLTWSC-NH2
modifications: linker 2-11 via mXylylene
SMILES: CC(C)C[C@@H]1NC(=O)[C@H](Cc2c[nH]c3ccccc23)NC(=O)[C@H](CC(=O)O)NC(=O)[C@H]2CCCN2C(=O)[C@H](CCC(=O)O)NC(=O)[C@@H](NC(=O)[C@H](Cc2ccc(O)cc2)NC(=O)COCCOCCNC(=O)CN2CCN(CC(=O)O)CCN(CC(=O)O)CCN(CC(=O)O)CC2)CSCc2cccc(c2)CSC[C@@H](C(N)=O)NC(=O)[C@H](CO)NC(=O)[C@H](Cc2c[nH]c3ccccc23)NC(=O)[C@H]([C@@H](C)O)NC1=O
[2]
  pKD: 7.1 to 8 pkd
[3]
  t1/2 (half-life of the complex, SPR): 2.1 to 5 min

## {DOTA-PPAc}-QCE[dP]D[Af3(PrHydr)]LTWSC-NH2 (linker 2-11 via mXylylene) [3BP-4515]
[3]
  t1/2 (half-life of the complex, SPR): 2.1 to 5 min
[4]
  pIC50: 7.1 to 8 pic50

## {DOTA-PPAc}-QCE[dP]D[Aph(Hsfu)]LTWSC-NH2 (linker 2-11 via mXylylene) [3BP-4813]
[2]
  pKD: 7.1 to 8 pkd
[3]
  t1/2 (half-life of the complex, SPR): 2.1 to 5 min
[4]
  pIC50: 7.1 to 8 pic50

## {DOTA-Gab}-DCE[dP]DWLTW[Dap]C-NH2 (lactam 10-1; linker 2-11 via mXylylene) [3BP-4263]
[1]
  pIC50: > 8 pic50

## {DOTA-PPAc}-DCE[dP]D[Phe(3-NHCO(CH2)3SO2NH2)]LTW[Dap]C-NH2 (lactam 1-10; linker 2-11 via mXylylene) [3BP-4497]
[11]
  pKD: > 8 pkd
[9]
  t1/2 (half-life of the complex, SPR): > 15 min
[4]
  pIC50: 7.1 to 8 pic50

## {DOTA-PPAc}-QCE[dP]D[Af3(Aytr)]LTWSC-NH2 (linker 2-11 via mXylylene) [3BP-4847]
[10]
  pIC50: 6.1 to 7 pic50

## {DOTA-PPAc}-QCE[dP]D[Aph(Aybu)]LTWSC-NH2 (linker 2-11 via mXylylene; reading uncertain) [3BP-4884]
[10]
  pIC50: 6.1 to 7 pic50

## {DOTA-APAc″}-VYCE[dP]D[Af3(CMPy)]LTWSC-NH2 (linker 3-12 via mXylylene) [3BP-4305]
[2]
  pKD: 7.1 to 8 pkd
[5]
  t1/2 (half-life of the complex, SPR): ≤ 2 min

B5: 3BP-4501 (peptide)
peptide: {DOTA}-QCE[dP]D[Aph(SaPr)]LTWSC-NH2
modifications: linker 2-11 via mXylylene
SMILES: CC(C)C[C@@H]1NC(=O)[C@H](Cc2ccc(NC(=O)CCS(N)(=O)=O)cc2)NC(=O)[C@H](CC(=O)O)NC(=O)[C@H]2CCCN2C(=O)[C@H](CCC(=O)O)NC(=O)[C@@H](NC(=O)[C@H](CCC(N)=O)NC(=O)CN2CCN(CC(=O)O)CCN(CC(=O)O)CCN(CC(=O)O)CC2)CSCc2cccc(c2)CSC[C@@H](C(N)=O)NC(=O)[C@H](CO)NC(=O)[C@H](Cc2c[nH]c3ccccc23)NC(=O)[C@H]([C@@H](C)O)NC1=O
notes: also called DPI-4501
[6]
  pKD: < 6 pkd
[7]
  pKD: < 6 pkd
[8]
  pKD: < 6 pkd
[9]
  t1/2 (half-life of the complex, SPR): > 15 min

## {DOTA-APAc″}-VYCE[dP]D[Aph(HO-Succinyl)]LTWSC-NH2 (linker 3-12 via mXylylene) [3BP-4356]
[2]
  pKD: 7.1 to 8 pkd
[5]
  t1/2 (half-life of the complex, SPR): ≤ 2 min

B6: 3BP-4338 (peptide)
peptide: DCE[dP]DWLTW[Dap]C-NH2
modifications: lactam 1-10; linker 2-11 via mXylylene; not fully specified (N-terminus); also: indium complexed by DOTA
[1]
  pIC50: > 8 pic50

## {DOTA-PPAc}-QCE[dP]D[Af3(Cshx)]LTWSC-NH2 (linker 2-11 via mXylylene) [3BP-4787]
[10]
  pIC50: 6.1 to 7 pic50
